# Reference: patent US20130018172A1, “Metal Abstraction Peptide and Uses Thereof” (Echogen, Inc., priority 2011, published 2013)
# Changes are numbered by the printed parent chain. Names may count otherwise.
# B1: PRL-1: recombinant human PRL-1 (phosphatase of regenerating liver) wild type, C-terminal NCC motif (protein, UniProt Q93096 1-170, looked up)
# Protein tyrosine phosphatase …: MARMNRPAPVEVTYKNMRFLITHNPTNATLNKFIEELKKYGVTTIVRVCEATYDTTLVEKEGIHVLDWPFDDGAPPSNQIVDDWLSLVKIKFREEPGCCIAVHCVAGLGRAPVLVALALIEGGMKYEDAVQFIRQKRRGAFNSKQLLYLEKYRPKMRLRFKDSNGHRNNC
# B2: PRL-1-H166A: PRL-1 mutant, histidine 166 of the NGH motif replaced by alanine (protein, UniProt Q93096 1-170, looked up, variant H166A)
# Protein tyrosine phosphatase …: B1 Protein tyrosine phosphatase … with H166A
# B3: Apo PRL-1: PRL-1 without bound metal (protein, UniProt Q93096 1-170, looked up)
# Protein tyrosine phosphatase …: B1 Protein tyrosine phosphatase …
# modifications: metal-free
# B4: PRL-1-C170S: PRL-1 mutant, cysteine 170 replaced by serine (protein, UniProt Q93096 1-170, looked up, variant C170S)
# Protein tyrosine phosphatase …: B1 Protein tyrosine phosphatase … with C170S
# Key:
# [1] = ICP-MS of metal bound to purified PRL-1 (Zn); format: binding
# Procedure: (§1) ICP-MS was used to characterize the bound metal. Purified protein samples were digested in concentrated nitric acid in PFA microcentrifuge tubes (Savillex, #s 7240, 7241) at 68±1° C. for 16.5±0.7 hours. Based on protein quantification prior to digestion, the sample was then diluted to 1.5 μM in 20 mM ammonium bicarbonate, pH 8.2, filtered through a 0.2 μm nylon filter, and injected into a VG Elemental VGII+XS Inductively-Coupled Plasma-Mass Spectrometer fitted with a microconcentric nebulizer. A minimum of two separately prepared samples were analyzed for each protein variant. Each sample was scanned twice and standards were run before, between, and after each sample scan. Drift was monitored during washes between scans of both sample and standard injections.
# To confirm that the chromophore arises from protein abstraction of the metal from the charged IMAC matrix, samples were subjected to ICP-MS for semi-quantitative analysis. […] On average 500 μM Ni-purified protein samples were digested in nitric acid for 16 h at 70° C. were determined to contain approximately 180 μM Ni, yielding a Ni to protein stoichiometry of 1:2.7+/−0.7. Zn was also detected in the Ni-purified samples at approximately 60 μM. […] Because ICP-MS analysis is conducted in a flow of Ar and the most abundant isotope of Ar has the same mass as Ca, Ca binding cannot be determined from the primary mass signal. […]
# [2] = Metal displacement from Ni-purified PRL-1 (EDTA exchange, guanidinium hydrochloride and heat); format: physicochemical
# Procedure: UV-Vis absorption spectra were used to measure the concentration of the PRL-1 protein. The concentrations of purified PRL-1 analogs were measured at 280 nm and calculated using an extinction coefficient of 19420 M^−1 cm^−1. Because of possible metal-protein absorption interferences in the high 200 nm region, the validity of the UV-Vis quantification method was confirmed by the Bradford method. Spectra of PRL-1 analogs at concentrations of 10, 5, 2.5, and 1.25 mg/mL were collected on a Cary 100 UV-Vis spectrophotometer from 800 to 200 nm. […] The resulting spectra were resolved and peak positions were evaluated using GRAMS/AI 7.00 software. Three methods were aimed at metal displacement. In the first, PRL-1-WT (e.g., wild type) samples were reduced using 20 mM β-mercaptoethanol (BME), and imidazole was added to a concentration of 10 mM. For 0.5 mM protein samples, this corresponds to 400-fold solution excess of BME to compete with the two C-terminal cysteine thiols and a 200-fold solution excess of imidazole to compete with the single C-terminal histidine imidazole side chain. New baselines were taken and the spectra recalculated. In the second method, baselines were recalculated for buffer containing 100 μM EDTA, and the spectrum for the PRL-1-WT sample that was exchanged ten million fold in 100 μM EDTA was recorded. Finally, 10 mg/mL protein samples were denatured in 5.6 M guanidinium hydrochloride and heated to 90° C., new baselines were taken, and the spectra were collected at 0, 2, 4 and 6 hrs.
# Ni binding in PRL-1 was not affected by reduction of the disulfide bond at PRL-1's active site. […] Subtraction of the reduced spectrum from the oxidized confirms that there was no significant difference in metal coordination between the reduced and oxidized WT samples. To examine whether a small contribution from a His is made, additional imidazole was added to the solution to increase the signal strength of a transient association. […] Additionally, no spectral change was observed when the Ni-purified sample was reduced in the presence of imidazole. […]
# [3] = ICP-MS of metal bound to purified PRL-1 variants (Ni); format: binding; details: for Ni bound, ICP-MS: PRL-1 variants purified on Ni-IMAC, analyzed in parallel
# Procedure: Because the histidine mutant retained tight binding, mutations at C170 and/or C171 were made.
# as §1
# To confirm that the chromophore arises from protein abstraction of the metal from the charged IMAC matrix, samples were subjected to ICP-MS for semi-quantitative analysis. As extensive washing is used to remove background metals, the values obtained from this method inherently underestimate the amount of metal bound, but can be used to assess the relative affinity of different metals for the protein. Additionally, to identify an endogenous metal ligand that may have been bound to PRL-1 during expression in the cells, ICP-MS was used to look for the presence of a transition metal from the first two rows in the periodic table as well as other common biologically relevant metals. […] On average 500 μM Ni-purified protein samples were digested in nitric acid for 16 h at 70° C. were determined to contain approximately 180 μM Ni, yielding a Ni to protein stoichiometry of 1:2.7+/−0.7. Zn was also detected in the Ni-purified samples at approximately 60 μM. […] Because ICP-MS analysis is conducted in a flow of Ar and the most abundant isotope of Ar has the same mass as Ca, Ca binding cannot be determined from the primary mass signal. Nonetheless, because a much higher amount of Ca was present in the cell culture media compared to Zn and yet the ICP-MS signal corresponds largely to zinc, the protein is unlikely to bind calcium.
# [4] = UV-Vis absorption spectroscopy of Ni coordination by PRL-1 variants; format: binding; details: relative to wild-type, Ni-purified
# Procedure: UV-Vis absorption spectra were used to measure the concentration of the PRL-1 protein. The concentrations of purified PRL-1 analogs were measured at 280 nm and calculated using an extinction coefficient of 19420 M^−1 cm^−1. Because of possible metal-protein absorption interferences in the high 200 nm region, the validity of the UV-Vis quantification method was confirmed by the Bradford method. Spectra of PRL-1 analogs at concentrations of 10, 5, 2.5, and 1.25 mg/mL were collected on a Cary 100 UV-Vis spectrophotometer from 800 to 200 nm. […] The resulting spectra were resolved and peak positions were evaluated using GRAMS/AI 7.00 software. Three methods were aimed at metal displacement. […] In the second method, baselines were recalculated for buffer containing 100 μM EDTA, and the spectrum for the PRL-1-WT sample that was exchanged ten million fold in 100 μM EDTA was recorded. […]
# Accordingly, characterization of metal coordination by PRL-1 was determined with UV-Vis absorption spectroscopy. The metal coordination geometry employed by PRL-1 and its mutants was analyzed using UV-Vis absorption spectroscopy at 800-200 nm. Absorption spectra of PRL-1 produced peaks at 280 and 220 nm, which arise from aromatic and peptide bonds within the protein and correspond well with the concentration determined using the Bradford assay. […]
# [5] = Solubility of PRL-1 on loss of metal; format: physicochemical; details: metal-free protein
molecule,measurement,setting,value
B1,"Zn detected in Ni-purified samples, ICP-MS",[1]; Ni-IMAC purified,approximately 60 μM
same,"Zn content after Zn-IMAC purification, ICP-MS",[1]; Zn-IMAC purified,270 µM
same,"loss of peaks at 318, 421 and 526 nm (Ni release)",[2]; 5.6 M guanidinium hydrochloride at 90° C.,only gradually disappeared over 6 hrs
same,reversibility of Ni binding,[2]; pH 7.4,irreversible
same,effect of EDTA exchange on the absorption spectrum,[2]; ten million-fold exchange into buffer containing 100 μM EDTA,little effect on the spectrum
same,"Ni bound, ICP-MS",[3],approximately 120 μM
same,"Ni level in Zn-IMAC purified protein, ICP-MS",[3]; Zn-IMAC purified,only background levels
same,"Ni content of Ni-purified protein samples, ICP-MS","[3]; on average 500 μM Ni-purified protein, digested in nitric acid 16 h at 70° C., semi-quantitative",approximately 180 μM
B2,decrease in signal measured by absorption spectroscopy,[4],20%
same,"Ni bound, ICP-MS",[3],~60 µM
B3,solubility,[5],poorly soluble
B4,"Ni bound, ICP-MS",[3],No Ni was detected
